Measured values reported in the DeepSol protein solubility set.

Experiment: soluble on expression in E. coli; label from the status in PepcDB or PDB records

Sequence	soluble on expression in E. coli
MAEAVLRVARRQLSQRGGSGAPILLRQMFEPVSCTFTYLLGDRESREAVLIDPVLETAPRDAQLIKELGLRLLYAVNTHCHADHITGSGLLRSLLPGCQSVISRLSGAQADLHIEDGDSIRFGRFALETRASPGHTPGCVTFVLNDHSMAFTGDALLIRGCGRTDFQQGCAKTLYHSVHEKIFTLPGDCLIYPAHDYHGFTVSTVEEERTLNPRLTLSCEEFVKIMGNLNLPKPQQIDFAVPANMRCGVQTPTALEHHHHHH	soluble
MGSDKIHHHHHHMFQNKKHRIALISIDGDPAVEIGQEEAGGQNVYVRQVGYALAQQGWQVDMFTRRSNSEQSAIAQHGPNCRTIRLKAGPAEFIGRDNLFDHLPEFIEEFQKFQQRQGFHYSLIHTNYWLSSWVGMELKKQQSLIQVHTYHSLGAVKYRSIGDVPVIAAQRLAVEKACLETIDCVVATSPQEQKHMRVLVSSKGNIEMIPCGTDTDKFGGIQRTAAREKLGIAPDAKIVLYVGRFDRRKGIETLVRAVAKSSLRGEANLQLVIGGGSRPGQSDAIERDRIASIVTELGLENCTTFAGRLDETVLPFYYAAADVCVVPSHYEPFGLVAIEAMASQTPVVASDVGGLQFTVVPEVTGLLAPPKDEVAFAAAIDRILINPTWRDQLGEAARQRTEIAFSWYSVGFRLTQLYTRLLAQTASNTRPRIAA	not soluble
MKEKIPFYNEKEFHDMVKKTKKGTFSGWYIIDKDNNSVEFSGKFNRQFKLNKPVIPVNTEYVTRKEFNEYKNSNDQRLTKIETTLAAQGEQINKLTQTVEKQGEQINQLVQVVLLHGEQINKLTQTVEKQGEQIKELQIEQKAQGETLKLILQTLQKMSDRLDKMEVKMDKMEVKMDKMEVKMDKMEKRIDKLESKLEHHHHHH	not soluble
GSHMNRFLTSIVAWLRAGYPEGIPPTDSFAVLALLCRRLSHDEVKAVANELMRLGDFDQIDIGVVITHFTDELPSPEDVERVRARLAAQGWPLDDVRDREEHA	soluble
SLLLRLCRWLRLLGYPTVAAHEVVDPTKVEDEDEVLVEFCREHDALLITRDRQLARRARAVLITADSVPEQIAEVLEFLGDEAFLDPDESRCPECNARVRRVTAENPGPFEVTWECPECRRKYWVGGHWRDMEETIDRVKKALRRVQRGHLRG	not soluble
NQHLTILRNVSDRKRMEKELRESELKFRKVFNGSMDGNVLFDNQYRIIDANPLASHILGLSHEEIKQHSLLDIISAYEIENLASPARQINFDEMDNEIPFLLSSGDNRKLEFSFKRNIIQ	not soluble
MGSDKIHHHHHHMTVVEPNSDQKLDTAVATVLHEISSFQSFAVERDLEDVIERISKVFRISDIDAFRYYINKSISGLGKIYPLFNLEEVKEIDVNGYDEPVIVKLSDDNYYTTNIKLLANEVDSIAIRLAQLMGKKISTSDPLARGTLNNREVSITFGTEISPKGSSIRIARNDSGYDLKKFVESNGFSLESISYLKIAIENSKSIVIIGPHTELKYSALLFLMDLVDKEKKITYIGEKIPSRSPGNYIFMKTKEKSIFSSQIDRVSLINTAMRQRPDYIVIDTIEVVDLPSVIQAITTGHPTFTSIDIDSVSALVSAFSDSALDLGRDMVSVIDIVIEISESSDRISSIYEFDRFEHNDVLYDLVFSIDKTTEKLRYNGFSPMFRSMSNAMGKDDFHRYLENVRKITSELIENGLS	not soluble
EVQLQQSGPELKKPGETVKISCKATNYAFTDYSMHWVKQAPGGDLKYVGWINTETDEPTFADDFKGRFAFSLDTSTSTAFLQINNLKNEDTATYFCVRDRHDYGEIFTYWGQGTTVTVSA	soluble
SPLDRDPAFRVITVTKETGLGLKILGGINRNEGPLVYIHEVIPGGDCYKDGRLKPGDQLVSINKESMIGVSFEEAKSIITRAKLRSESPWEIAFIR	soluble
MAHHHHHHMDMLHQIYALEYKRNTQRSDRIRDKDKTKIRILFIGGNEFSLLCFKVIRLIIKYVRNDIVLDHVITKSPRKKGRHLKLKKSHIEEEAEKEKIKIFYYDKIRNDTYMLKNETFDLCISASFGEIFNASFFKNIASNVYTLHPSLLPLYRGASPIQRSLLNNESLFGYSIFLTNLRIDAGPVLIRSPHTFGDAFNFNDIITILFTLGSLHLMRHIFFLANYKLGSTNGELQRTVESPNPSTISTHNNNKHLKIRHLLYDEENITPHNVKKKQFMLHTDIGQDKMNYAWLRNYLMLSSTHNNNTYAPKIKSEERYVCFFCSTALHIHNKVRGFINWPKVECTLYLVHKGGLKAMEVKLIKTSQESGDHISHQHLHQFKHLDALQSHKCFDGIPRKLAIFNRGAINILCKDNSLLKIYKLQRKNKKIMDASSFFNSINGVDLLY	not soluble
MAYDIERYLDIRGAGDPTYGPTGELAFTLGTTGTAQVWALGAPGAWPTQLTFHDERVQWASFSPTREELAYGMDTGGDEFTQLHRVSGDGSEDVQLTAFPDAKHDWGGWSHDGDRIAYTANRRDASRFDVYVQGRDEAGANADCVRVGDTFDLPSVVGWSPSDDRLLVVDTHSNFDQDVAVLDVDTGEITRATAGLDADTRFSWVAWAPDGGGVYVTTDHDADTRYLGLLDPETGAISRVADGGDWPIEAVVTAHDAGRLAYVRNRDGYSELTIADAAGTTLTEQPTPELPDGVIRGLSWGPDGDTLAVVVSAATENPNVFVVDVATGAATQWTNAATAGIPKSTFREPELVRYETFDGREIPALFTRPDGDGPHPVIVDFHGGPEGQRRPSFLSLRQYFVDNGYAVFEPNVRGSSGYGATYMNLDNVRNRMDAVADGKAGVEWLTARTDIDADRVVAYGGSYGGFMVLASLTEYPELWAAGVDIVGIANFVTFLENTGDWRREHRESEYGSLDADREFLESISPTNNADRIRAPLLVLHGANDPRVPVGEAERIVEQASAHVPVEKHVFDDEGHGFSKRANKQAAYRAVVDFLDDHALEHHHHHH	not soluble
LSESDRGASCAPIGAIADAVKSGKVGSCVNNEYDVPGGKVEDFVSGRAYWSPSTGAHALYGRINARYSEMGGPQSWLGFPISSEFAIKDNARVVQFQNGNIYWSPQRGAIAVPKDIVDKWGEQQWENGFLGFPVAEAKEVAGGFIQEFEGGLVVRTKDNKNQWLRGEIAKKYREMKTAESELGFPVSDEIKINGGAFQQFEHGNIYWSAATGAHFIRKGDIFNTWGVKKWEQGELGFPVTDHTQIPAGGEEITFQHGKISQVNGVIREERR	not soluble
SLTTVSVNESLLTPLNLEIDPNAQCVKQEEKEQIKSLNSRFAAFIDKVRFLEQQNKLLETKLQFYQNRECCQSNMEPLFEGYIETLRREAECVEADSGRLASELNHVQEVLEGYKKKYEEEVSLRATAENEFVALKKDVDCAYLRKSDLEANVEALIQEIDFLRRLYEEEIRILQSHISDTSVVVKLDNSRDLNMDCIIAEIKAQYDDIVTRSRAEAESWYRSKCEEMKATVIRHGETLRRTKEEINELNRMIQRLTAEVENAKCQNSKLEAAVAQSEQQGEAALSDARCKLAELEGALQKAKQDMACLIREYQEVMNSKLGLDIEIATYRRLLEGEEQRLCEGIGAVNVCVSSSRGGVVCGDLCVSGSRPVTGSVCSAPCNGNVAVSTGLCAPCGQLNTTCGGGSCGVGSCGISSLGVGSCGSSCRKC	soluble
MSNYVIQADQQLLDALRAHYEGALSDRLPAGALFAVKRPDVVITAYRSGKVLFQGKAAEQEAAKWISGASASNETADHQPSALAAHQLGSLSAIGSDEVGTGDYFGPIVVAAAYVDRPHIAKIAALGVKDSKQLNDEAIKRIAPAIMETVPHAVTVLDNPQYNRWQRSGMPQTKMKALLHNRTLVKLVDAIAPAEPEAIIIDEFLKRDSYFRYLSDEDRIIRERVHCLPKAESVHVSVAAASIIARYVFLEEMEQLSRAVGLLLPKGAGAIVDEAAARIIRARGEEMLETCAKLHFANTKKALAIAKRRK	soluble
MPLSPTSVPLTVKEFEKALCGICGGCSSACGYIAYLKQDELVDLYGHPHDPNGIGSFCTKGITYIQEIPKNPLRITKPLLREGNNFREVEFQETKKLIKENLKGKVAFFLDRFAGIEEYLIARSLTEEVFSDSLYLPFKQTSVRAQDWVDKKALFIFEAEPTFSEVMLTRWIVDAFEKDAYIFTAGSRYTTVFQKSKEKVLTTPEKTTEILQALSEGRFEGKAQKFLEFFGKESVVIVGDTLLRSPFRGKVLKTLKEISEKYGADYSIVGNITPFPVKSLKEFLERLGEFDTLVLFGNPFIYLSDEQIQKLKDKFVINFAYFPTITANHSTLIIPRTTFAEREFIVKGFGFLAHSPQVLNAPFPQPYEYFESSFDVEDFLKECGVKLEELKEKEGGVDISMKDITEVDINEEDRSESGELWFICDNTLAEELGHWNPWTHALEREQFAYVNQKTKERLNIGNLIEINGVKLKVKVNNNLADNVVFVPNSFEEFQPFDPGIRVGRLMKKPFFKLEVLNLNV	not soluble
